Experimental findings from article doi:10.1101/2023.12.22.572801 are described below.

The assay deals with RbpB (BT_1887), recombinant B. thetaiotaomicron RbpB (B. thetaiotaomicron) (UniProt A9IXD6). The experiment in a line: SEC.

Take “RbpB (BT_1887), recombinant B. thetaiotaomicron RbpB (from UniProt A9IXD6 1-44) (natural protein)”: the stoichiometry N was 2.
